Reference: article PMC12032115

Biological target: PTPRF (UniProt P10586)
Experiment: flow cytometry

Sequence of PTPRF (P10586 30-1907): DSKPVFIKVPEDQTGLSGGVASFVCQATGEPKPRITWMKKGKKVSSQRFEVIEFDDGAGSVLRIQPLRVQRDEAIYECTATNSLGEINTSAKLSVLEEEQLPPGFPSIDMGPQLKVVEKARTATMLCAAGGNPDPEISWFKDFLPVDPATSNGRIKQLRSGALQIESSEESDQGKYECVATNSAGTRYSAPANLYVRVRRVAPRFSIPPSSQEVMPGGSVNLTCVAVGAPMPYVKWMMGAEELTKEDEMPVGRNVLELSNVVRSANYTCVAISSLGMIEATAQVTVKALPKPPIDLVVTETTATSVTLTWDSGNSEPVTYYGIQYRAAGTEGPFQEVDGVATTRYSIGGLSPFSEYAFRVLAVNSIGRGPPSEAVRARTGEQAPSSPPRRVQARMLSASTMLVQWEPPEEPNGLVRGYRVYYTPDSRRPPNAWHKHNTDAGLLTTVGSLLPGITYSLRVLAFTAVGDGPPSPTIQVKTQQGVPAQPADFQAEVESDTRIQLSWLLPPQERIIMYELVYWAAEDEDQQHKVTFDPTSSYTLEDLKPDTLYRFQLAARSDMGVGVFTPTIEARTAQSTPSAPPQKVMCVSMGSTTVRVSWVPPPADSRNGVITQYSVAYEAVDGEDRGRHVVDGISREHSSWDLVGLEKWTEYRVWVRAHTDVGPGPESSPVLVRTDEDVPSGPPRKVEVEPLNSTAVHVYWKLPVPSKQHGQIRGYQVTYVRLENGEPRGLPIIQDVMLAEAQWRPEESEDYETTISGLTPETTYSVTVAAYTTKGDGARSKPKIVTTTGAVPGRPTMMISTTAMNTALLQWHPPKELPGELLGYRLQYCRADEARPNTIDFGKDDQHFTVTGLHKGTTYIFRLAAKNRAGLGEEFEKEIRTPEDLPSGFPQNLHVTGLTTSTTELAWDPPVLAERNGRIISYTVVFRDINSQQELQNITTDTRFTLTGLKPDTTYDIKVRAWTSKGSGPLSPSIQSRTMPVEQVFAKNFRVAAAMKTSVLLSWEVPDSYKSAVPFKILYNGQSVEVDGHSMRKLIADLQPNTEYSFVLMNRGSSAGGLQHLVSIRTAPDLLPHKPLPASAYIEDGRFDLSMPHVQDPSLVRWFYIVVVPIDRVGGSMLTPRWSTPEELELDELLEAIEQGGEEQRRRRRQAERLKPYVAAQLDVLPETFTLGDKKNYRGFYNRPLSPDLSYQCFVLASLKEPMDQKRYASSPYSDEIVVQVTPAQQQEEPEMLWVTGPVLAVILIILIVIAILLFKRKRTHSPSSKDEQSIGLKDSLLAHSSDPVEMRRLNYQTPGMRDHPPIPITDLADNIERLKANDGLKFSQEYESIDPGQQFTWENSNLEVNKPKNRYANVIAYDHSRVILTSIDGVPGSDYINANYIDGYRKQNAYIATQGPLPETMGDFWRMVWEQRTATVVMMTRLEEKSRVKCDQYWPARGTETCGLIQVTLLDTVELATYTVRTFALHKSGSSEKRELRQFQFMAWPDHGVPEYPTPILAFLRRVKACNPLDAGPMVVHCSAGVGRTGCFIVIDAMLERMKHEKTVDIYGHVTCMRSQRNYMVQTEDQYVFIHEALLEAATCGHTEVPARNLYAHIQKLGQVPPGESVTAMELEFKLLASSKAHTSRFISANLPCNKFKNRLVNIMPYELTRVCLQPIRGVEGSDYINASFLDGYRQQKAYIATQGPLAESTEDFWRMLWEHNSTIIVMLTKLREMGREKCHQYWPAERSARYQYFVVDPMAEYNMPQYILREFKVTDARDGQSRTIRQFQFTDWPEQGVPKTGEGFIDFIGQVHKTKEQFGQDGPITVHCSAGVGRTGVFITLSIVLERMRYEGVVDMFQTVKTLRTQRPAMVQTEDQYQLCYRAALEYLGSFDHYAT

TGGAGGATATAGGTTGGCTTAGGTGGCTTTGCGTTGGGTGTGGTGCATATCCTCCA [ZAJ4a]
Kd: 0.0233 µM
